Measured values from patent publication US20210388087A1 (Chugai, published 2021).
Substitutions are numbered along the chain they refer to. Numbers in names are those of the source. Blank lines part the entries; values can stand above or below the binder they belong to.

Biological target: T1, Human CD3eg linker (human)
T1 construct: single-chain construct; also called recombinant human CD3
T1 chain: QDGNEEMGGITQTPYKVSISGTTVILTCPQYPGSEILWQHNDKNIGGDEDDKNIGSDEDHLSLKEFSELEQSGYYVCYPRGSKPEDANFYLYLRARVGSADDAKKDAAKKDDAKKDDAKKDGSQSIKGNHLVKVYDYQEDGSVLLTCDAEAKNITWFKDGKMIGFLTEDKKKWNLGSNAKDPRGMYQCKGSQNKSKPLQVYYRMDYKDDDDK
Assay: SPR, vs unmutated H183/L072

fold change of affinity: 0 fold
B1: dBBDu183H D101Y/dBBDu072L (antibody, name in Kabat numbering, V domains shown)
VH: QVQLVESGGGLVQPGRSLRLSCAASGFTFSNAWMHWVRQAPGKGLEWVAQIKDKGNAYAAYYAPSVKGRFTISRDDSKNSIYLQMNSLKTEDTAVYYCHYVHYASASTVLPAFGVYAWGQGTTVTVSS
VL: DIVMTQSPLSLPVTPGEPASISCQASQELVHMNRNTYLHWYQQKPGQAPRLLIYKVSNRFPGVPDRFSGSGSGTDFTLKISRVEAEDVGVYYCAQGTSVPFTFGQGTKLEIK

fold change of affinity: 1 fold
B2: dBBDu183H G65T/dBBDu072L (antibody, name in Kabat numbering, V domains shown)
VH: B1 VH with G68T, Y116D
VL: B1 VL

fold change of affinity: 0.5 fold
B3: dBBDu183H G100hE/dBBDu072L (antibody, name in Kabat numbering, V domains shown)
VH: B1 VH with G114E, Y116D
VL: B1 VL

fold change of affinity: 0.3 fold
B4: dBBDu183H G100hK/dBBDu072L (antibody, name in Kabat numbering, V domains shown)
VH: B1 VH with G114K, Y116D
VL: B1 VL

fold change of affinity: 1 fold
B5: dBBDu183H G65D/dBBDu072L (antibody, name in Kabat numbering, V domains shown)
VH: B1 VH with G68D, Y116D
VL: B1 VL

fold change of affinity: 1 fold
B6: dBBDu183H G65Y/dBBDu072L (antibody, name in Kabat numbering, V domains shown)
VH: B1 VH with G68Y, Y116D
VL: B1 VL

fold change of affinity: 1 fold
B7: dBBDu183H G65Q/dBBDu072L (antibody, name in Kabat numbering, V domains shown)
VH: B1 VH with G68Q, Y116D
VL: B1 VL

fold change of affinity: 1.1 fold
B8: dBBDu183H G65K/dBBDu072L (antibody, name in Kabat numbering, V domains shown)
VH: B1 VH with G68K, Y116D
VL: B1 VL

fold change of affinity: 0.9 fold
B9: dBBDu183H F100gW/dBBDu072L (antibody, name in Kabat numbering, V domains shown)
VH: B1 VH with F113W, Y116D
VL: B1 VL

fold change of affinity: 0.4 fold
B10: dBBDu183H G100hR/dBBDu072L (antibody, name in Kabat numbering, V domains shown)
VH: B1 VH with G114R, Y116D
VL: B1 VL

fold change of affinity: 0.9 fold
B11: dBBDu183H G65N/dBBDu072L (antibody, name in Kabat numbering, V domains shown)
VH: B1 VH with G68N, Y116D
VL: B1 VL

fold change of affinity: 0.5 fold
B12: dBBDu183H F100gE/dBBDu072L (antibody, name in Kabat numbering, V domains shown)
VH: B1 VH with F113E, Y116D
VL: B1 VL

fold change of affinity: 0.9 fold
B13: dBBDu183H F100gN/dBBDu072L (antibody, name in Kabat numbering, V domains shown)
VH: B1 VH with F113N, Y116D
VL: B1 VL

fold change of affinity: 0 fold
B14: dBBDu183H H93E/dBBDu072L (antibody, name in Kabat numbering, V domains shown)
VH: B1 VH with H99E, Y116D
VL: B1 VL

fold change of affinity: 1.3 fold
B15: dBBDu183H F100gT/dBBDu072L (antibody, name in Kabat numbering, V domains shown)
VH: B1 VH with F113T, Y116D
VL: B1 VL

fold change of affinity: 1.8 fold
B16: dBBDu183H F100gH/dBBDu072L (antibody, name in Kabat numbering, V domains shown)
VH: B1 VH with F113H, Y116D
VL: B1 VL

fold change of affinity: 1 fold
B17: dBBDu183H G65E/dBBDu072L (antibody, name in Kabat numbering, V domains shown)
VH: B1 VH with G68E, Y116D
VL: B1 VL

fold change of affinity: 3.4 fold
B18: dBBDu183H F100gR/dBBDu072L (antibody, name in Kabat numbering, V domains shown)
VH: B1 VH with F113R, Y116D
VL: B1 VL

fold change of affinity: 0.3 fold
B19: dBBDu183H F100gD/dBBDu072L (antibody, name in Kabat numbering, V domains shown)
VH: B1 VH with F113D, Y116D
VL: B1 VL

fold change of affinity: 1.1 fold
B20: dBBDu183H G100hS/dBBDu072L (antibody, name in Kabat numbering, V domains shown)
VH: B1 VH with G114S, Y116D
VL: B1 VL

fold change of affinity: 0.5 fold
B21: dBBDu183H G100hD/dBBDu072L (antibody, name in Kabat numbering, V domains shown)
VH: B1 VH with G114D, Y116D
VL: B1 VL

fold change of affinity: 0.4 fold
B22: dBBDu183H G100hF/dBBDu072L (antibody, name in Kabat numbering, V domains shown)
VH: B1 VH with G114F, Y116D
VL: B1 VL

fold change of affinity: 1.2 fold
B23: dBBDu183H F100gV/dBBDu072L (antibody, name in Kabat numbering, V domains shown)
VH: B1 VH with F113V, Y116D
VL: B1 VL

fold change of affinity: 1.2 fold
B24: dBBDu183H G65V/dBBDu072L (antibody, name in Kabat numbering, V domains shown)
VH: B1 VH with G68V, Y116D
VL: B1 VL

fold change of affinity: 0 fold
B25: dBBDu183H H93G/dBBDu072L (antibody, name in Kabat numbering, V domains shown)
VH: B1 VH with H99G, Y116D
VL: B1 VL

fold change of affinity: 0.2 fold
B26: dBBDu183H H93K/dBBDu072L (antibody, name in Kabat numbering, V domains shown)
VH: B1 VH with H99K, Y116D
VL: B1 VL

fold change of affinity: 1.7 fold
B27: dBBDu183H F100gK/dBBDu072L (antibody, name in Kabat numbering, V domains shown)
VH: B1 VH with F113K, Y116D
VL: B1 VL

fold change of affinity: 0.8 fold
B28: dBBDu183H G100hN/dBBDu072L (antibody, name in Kabat numbering, V domains shown)
VH: B1 VH with G114N, Y116D
VL: B1 VL

fold change of affinity: 1 fold
B29: dBBDu183H G65R/dBBDu072L (antibody, name in Kabat numbering, V domains shown)
VH: B1 VH with G68R, Y116D
VL: B1 VL

fold change of affinity: 1.3 fold
B30: dBBDu183H F100gQ/dBBDu072L (antibody, name in Kabat numbering, V domains shown)
VH: B1 VH with F113Q, Y116D
VL: B1 VL

fold change of affinity: 1.2 fold
B31: dBBDu183H F100gY/dBBDu072L (antibody, name in Kabat numbering, V domains shown)
VH: B1 VH with F113Y, Y116D
VL: B1 VL

fold change of affinity: 1 fold
B32: dBBDu183H G65S/dBBDu072L (antibody, name in Kabat numbering, V domains shown)
VH: B1 VH with G68S, Y116D
VL: B1 VL

fold change of affinity: 0 fold
B33: dBBDu183H H93D/dBBDu072L (antibody, name in Kabat numbering, V domains shown)
VH: B1 VH with H99D, Y116D
VL: B1 VL

fold change of affinity: 0 fold
B34: dBBDu183H G100hY/dBBDu072L (antibody, name in Kabat numbering, V domains shown)
VH: B1 VH with G114Y, Y116D
VL: B1 VL

fold change of affinity: 0 fold
B35: dBBDu183H H93F/dBBDu072L (antibody, name in Kabat numbering, V domains shown)
VH: B1 VH with H99F, Y116D
VL: B1 VL

fold change of affinity: 0.9 fold
B36: dBBDu183H G65F/dBBDu072L (antibody, name in Kabat numbering, V domains shown)
VH: B1 VH with G68F, Y116D
VL: B1 VL

fold change of affinity: 1.5 fold
B37: dBBDu183H G100hH/dBBDu072L (antibody, name in Kabat numbering, V domains shown)
VH: B1 VH with G114H, Y116D
VL: B1 VL

fold change of affinity: 0.4 fold
B38: dBBDu183H G100hQ/dBBDu072L (antibody, name in Kabat numbering, V domains shown)
VH: B1 VH with G114Q, Y116D
VL: B1 VL

fold change of affinity: 2.3 fold
B39: dBBDu183H G100hT/dBBDu072L (antibody, name in Kabat numbering, V domains shown)
VH: B1 VH with G114T, Y116D
VL: B1 VL

fold change of affinity: 0.9 fold
B40: dBBDu183H G65H/dBBDu072L (antibody, name in Kabat numbering, V domains shown)
VH: B1 VH with G68H, Y116D
VL: B1 VL

fold change of affinity: 0 fold
B41: dBBDu183H G100hW/dBBDu072L (antibody, name in Kabat numbering, V domains shown)
VH: B1 VH with G114W, Y116D
VL: B1 VL

fold change of affinity: 3.4 fold
B42: dBBDu183H G100hV/dBBDu072L (antibody, name in Kabat numbering, V domains shown)
VH: B1 VH with G114V, Y116D
VL: B1 VL

fold change of affinity: 1.4 fold
B43: dBBDu183H F100gS/dBBDu072L (antibody, name in Kabat numbering, V domains shown)
VH: B1 VH with F113S, Y116D
VL: B1 VL

fold change of affinity: 1.2 fold
B44: dBBDu183H F100gG/dBBDu072L (antibody, name in Kabat numbering, V domains shown)
VH: B1 VH with F113G, Y116D
VL: B1 VL

fold change of affinity: 1 fold
B45: dBBDu183H G65W/dBBDu072L (antibody, name in Kabat numbering, V domains shown)
VH: B1 VH with G68W, Y116D
VL: B1 VL
